{"source": "paper doi:10.1101/2021.08.07.455519", "about": "(bioRxiv, 2021)", "binders": {"B1": {"name": "intermediate antibody IA5 of the J038 lineage (antibody, V domains shown)", "VH": "QLRLQESGPGLVKPSETLSLNCAVSGGSISDAYWSWIRQSPGRGLEWIGRISGRDGYTDYNPSLTSRVTISTDRSKTQVSLRLTSVTAADTAVYFCAREVAEDDYGYYQPYFDSWGQGVLVTVSS", "VL": "DIQMTQSPSSVSASVGDRVTITCRSSQGIDTDLAWYQHTPGKAPKLLIYHSCGLQSGVPSRFSGSGSGTDFTLTISSLQPEDFATYYCQQYKSLPLTFGGGTKVEVK"}}, "molecular_target": "BG505 UFO trimer (HIV-1 strain BG505, UniProt Q2N0S6, stabilised)", "test": "BLI"}
{"binder": "B1", "values": [{"measurement": "binding result", "result": "binds"}]}
